Data: FireProtDB (doi:10.1111/j.1432-1033.1996.00516.x)

Conditions: Aspergillus oryzae (strain ATCC 42149 / RIB 40), GdnHCl, Fluorescence, reversible: yes, whole UniProt chain shown
[1] = pH 5, 10 °C, Sodium acetate 0.1 M
[2] = pH 5, 25 °C, Sodium acetate 0.1 M

B1: Guanyl-specific ribonuclease T1 wild type, P00651 (protein)
chain: MMYSKLLTLTTLLLPTALALPSLVERACDYTCGSNCYSSSDVSTAQAAGYQLHEDGETVGSNSYPHKYNNYEGFDFSVSSPYYEWPILSSGDVYSGGSPGADRVVFNENNQLAGVITHTGASGNNFVECT
With B1 the denaturant m value [1] was 2.49 kcal/mol/M, the “denaturant midpoint (higher = more stable)” value (from here on “denaturant midpoint”) [1] was 3.94 M and the denaturant m value [2] was 2.75 kcal/mol/M. For the same protein, the “denaturant midpoint” value [2] was 3.63 M, the denaturant m value (pH 8, 10 °C, PIPES 0.1 M) was 2.63 kcal/mol/M and the “denaturant midpoint” value (pH 8, 10 °C, PIPES 0.1 M) was 3.21 M. For the same protein, the denaturant m value (pH 8, 25 °C, PIPES 0.1 M) was 2.46 kcal/mol/M and the “denaturant midpoint” value (pH 8, 25 °C, PIPES 0.1 M) was 2.4 M.
